Patent publication US20090093061A1

Assays:
Experiment in all cases: GroEL-490 bead column capture of denatured serum, ATP elution, LC-MS-MS
[1] = molecular target: 3-hydroxyanthranilate 3,4-dioxygenase (Homo sapiens) (UniProt P46952)
[2] = molecular target: ATPase, H+ transporting, lysosomal V0 subunit a isoform 2 (Homo sapiens) (UniProt Q9Y487)
[3] = molecular target: KIAA1330 protein (Homo sapiens) (UniProt Q96L96)
[4] = molecular target: LUC7-liKe 2 (Homo sapiens) (UniProt Q9Y383)
[5] = molecular target: NYD-SP11 protein (Homo sapiens)
[6] = molecular target: PDZ domain-containing guanine nucleotide exchange factor I (Homo sapiens) (UniProt Q8TEU7)
[7] = molecular target: Rho GTPase activating protein 21 (Homo sapiens) (UniProt Q5T5U3)
Chain of Rho GTPase activating protein 21 (Homo sapiens) (Q5T5U3 whole entry): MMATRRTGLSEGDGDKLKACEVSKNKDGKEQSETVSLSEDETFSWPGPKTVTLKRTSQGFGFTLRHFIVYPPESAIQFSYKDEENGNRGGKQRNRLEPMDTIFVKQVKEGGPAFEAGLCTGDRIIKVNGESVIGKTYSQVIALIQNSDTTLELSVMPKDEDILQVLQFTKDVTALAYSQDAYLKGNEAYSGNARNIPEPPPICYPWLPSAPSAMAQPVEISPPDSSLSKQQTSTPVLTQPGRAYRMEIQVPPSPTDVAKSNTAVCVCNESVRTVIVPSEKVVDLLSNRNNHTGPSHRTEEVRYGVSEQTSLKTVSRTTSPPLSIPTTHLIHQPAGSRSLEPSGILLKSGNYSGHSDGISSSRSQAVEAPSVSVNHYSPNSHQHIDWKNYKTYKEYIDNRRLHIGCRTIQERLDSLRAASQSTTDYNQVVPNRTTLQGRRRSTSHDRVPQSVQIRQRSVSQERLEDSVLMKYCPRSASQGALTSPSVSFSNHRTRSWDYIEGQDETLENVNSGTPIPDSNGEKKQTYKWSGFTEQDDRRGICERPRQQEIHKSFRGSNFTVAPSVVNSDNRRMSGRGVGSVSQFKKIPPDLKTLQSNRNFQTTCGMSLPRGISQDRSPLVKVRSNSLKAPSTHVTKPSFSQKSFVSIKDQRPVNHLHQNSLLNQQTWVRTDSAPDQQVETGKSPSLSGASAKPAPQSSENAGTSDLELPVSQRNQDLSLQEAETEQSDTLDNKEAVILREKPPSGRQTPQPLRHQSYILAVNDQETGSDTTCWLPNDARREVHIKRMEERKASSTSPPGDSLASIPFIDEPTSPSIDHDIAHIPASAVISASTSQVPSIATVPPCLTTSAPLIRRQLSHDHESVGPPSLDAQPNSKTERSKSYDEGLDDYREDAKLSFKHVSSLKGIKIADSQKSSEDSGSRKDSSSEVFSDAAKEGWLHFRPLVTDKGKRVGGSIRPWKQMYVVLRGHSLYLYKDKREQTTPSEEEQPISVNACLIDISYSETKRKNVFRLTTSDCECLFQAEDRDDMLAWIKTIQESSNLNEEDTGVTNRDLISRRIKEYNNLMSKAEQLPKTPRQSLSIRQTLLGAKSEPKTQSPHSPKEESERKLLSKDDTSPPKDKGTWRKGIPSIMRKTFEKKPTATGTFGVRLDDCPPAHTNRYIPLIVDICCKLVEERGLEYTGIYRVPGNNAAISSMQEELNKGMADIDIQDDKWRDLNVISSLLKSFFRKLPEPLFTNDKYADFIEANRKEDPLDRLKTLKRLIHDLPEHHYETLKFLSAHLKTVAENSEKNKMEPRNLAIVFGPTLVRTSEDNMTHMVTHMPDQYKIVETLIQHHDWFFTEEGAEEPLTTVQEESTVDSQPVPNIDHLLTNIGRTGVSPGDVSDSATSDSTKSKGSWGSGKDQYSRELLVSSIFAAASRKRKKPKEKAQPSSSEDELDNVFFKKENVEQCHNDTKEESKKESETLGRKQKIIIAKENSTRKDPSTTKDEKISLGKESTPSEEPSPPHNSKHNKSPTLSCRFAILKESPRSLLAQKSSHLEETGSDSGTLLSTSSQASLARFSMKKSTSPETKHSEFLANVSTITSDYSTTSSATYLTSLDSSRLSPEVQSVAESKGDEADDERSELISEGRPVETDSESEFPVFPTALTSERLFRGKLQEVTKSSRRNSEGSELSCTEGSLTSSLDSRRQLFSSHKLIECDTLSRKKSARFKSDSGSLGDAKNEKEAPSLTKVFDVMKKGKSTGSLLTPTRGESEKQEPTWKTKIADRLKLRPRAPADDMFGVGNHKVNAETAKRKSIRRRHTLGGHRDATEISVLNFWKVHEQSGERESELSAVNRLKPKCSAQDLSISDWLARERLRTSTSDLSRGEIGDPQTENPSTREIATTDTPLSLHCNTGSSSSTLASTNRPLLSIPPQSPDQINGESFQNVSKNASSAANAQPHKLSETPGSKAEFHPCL

[8] = molecular target: SMC5 protein (Homo sapiens) (UniProt Q8IY18)
[9] = molecular target: UDP glycosyltransferase 1 family, polypeptide A9 (Homo sapiens) (UniProt O60656)
[10] = molecular target: apolipoprotein B precursor (Homo sapiens) (UniProt P04114)
[11] = molecular target: bassoon (Homo sapiens) (UniProt Q9UPA5)
[12] = molecular target: brefeldin A-inhibited guanine nucleotide-exchange protein 1 (Homo sapiens) (UniProt Q9Y6D6)
[13] = molecular target: complement component 3 precursor (Homo sapiens) (UniProt P01024)
[14] = molecular target: complement component 4 binding protein, alpha (Homo sapiens) (UniProt P04003)
Chain of complement component 4 binding protein, alpha (Homo sapiens) (P04003 49-597): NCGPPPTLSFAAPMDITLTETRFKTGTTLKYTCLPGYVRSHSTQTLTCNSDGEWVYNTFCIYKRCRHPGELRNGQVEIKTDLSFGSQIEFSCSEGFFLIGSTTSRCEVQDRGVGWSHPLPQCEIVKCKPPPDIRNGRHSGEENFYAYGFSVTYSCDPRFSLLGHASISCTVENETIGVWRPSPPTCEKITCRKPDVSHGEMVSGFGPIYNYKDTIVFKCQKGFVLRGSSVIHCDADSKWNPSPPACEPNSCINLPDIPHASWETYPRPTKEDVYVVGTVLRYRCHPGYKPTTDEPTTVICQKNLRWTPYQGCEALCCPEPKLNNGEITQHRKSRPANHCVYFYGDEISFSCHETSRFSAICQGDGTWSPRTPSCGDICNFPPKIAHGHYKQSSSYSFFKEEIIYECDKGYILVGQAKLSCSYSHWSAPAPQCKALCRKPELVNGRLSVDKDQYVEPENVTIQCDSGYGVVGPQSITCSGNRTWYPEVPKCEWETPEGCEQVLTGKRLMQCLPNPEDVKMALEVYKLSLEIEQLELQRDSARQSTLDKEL

[15] = molecular target: human immunodeficiency virus type I enhancer binding protein 2 (Homo sapiens) (UniProt P31629)
[16] = molecular target: hypothetical protein FLJ22344 (Homo sapiens)
[17] = molecular target: hypothetical protein XP_378771 (Homo sapiens)
[18] = molecular target: inter-alpha (globulin) inhibitor, H2 polypeptide (Homo sapiens) (UniProt P19823)
[19] = molecular target: myocardin-related transcription factor B (Homo sapiens) (UniProt Q9ULH7)
Chain of myocardin-related transcription factor B (Homo sapiens) (Q9ULH7 other isoform, or with tags, fused parts or gaps limits assumed): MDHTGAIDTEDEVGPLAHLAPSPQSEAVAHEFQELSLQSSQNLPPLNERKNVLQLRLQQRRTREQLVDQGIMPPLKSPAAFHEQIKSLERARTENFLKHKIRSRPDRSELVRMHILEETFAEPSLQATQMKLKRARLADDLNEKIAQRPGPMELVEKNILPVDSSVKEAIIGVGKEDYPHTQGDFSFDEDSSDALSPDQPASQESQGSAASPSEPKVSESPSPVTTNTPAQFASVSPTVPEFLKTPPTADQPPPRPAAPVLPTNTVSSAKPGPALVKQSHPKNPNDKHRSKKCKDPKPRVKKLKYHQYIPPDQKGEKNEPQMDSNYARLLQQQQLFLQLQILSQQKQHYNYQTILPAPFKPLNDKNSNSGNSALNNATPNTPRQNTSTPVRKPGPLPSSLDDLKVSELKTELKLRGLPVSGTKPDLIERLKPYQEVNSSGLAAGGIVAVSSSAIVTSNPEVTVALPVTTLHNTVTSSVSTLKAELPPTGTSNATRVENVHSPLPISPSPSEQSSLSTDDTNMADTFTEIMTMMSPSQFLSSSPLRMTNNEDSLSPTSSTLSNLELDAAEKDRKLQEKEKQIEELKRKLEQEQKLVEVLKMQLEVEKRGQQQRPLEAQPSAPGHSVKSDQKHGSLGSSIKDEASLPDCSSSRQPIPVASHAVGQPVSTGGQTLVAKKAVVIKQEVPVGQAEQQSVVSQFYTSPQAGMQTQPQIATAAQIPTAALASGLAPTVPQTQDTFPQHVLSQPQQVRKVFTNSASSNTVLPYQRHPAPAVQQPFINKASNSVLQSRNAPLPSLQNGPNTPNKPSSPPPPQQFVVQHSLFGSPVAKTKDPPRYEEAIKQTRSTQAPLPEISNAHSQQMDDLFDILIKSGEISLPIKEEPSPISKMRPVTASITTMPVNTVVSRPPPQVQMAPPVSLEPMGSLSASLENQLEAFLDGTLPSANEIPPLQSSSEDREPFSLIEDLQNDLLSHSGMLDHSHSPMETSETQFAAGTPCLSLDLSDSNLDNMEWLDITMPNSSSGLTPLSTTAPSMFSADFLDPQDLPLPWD

[20] = molecular target: neutral sphingomyelinase (N-SMase) activation associated factor (Homo sapiens) (UniProt Q92636)
[21] = molecular target: odd Oz/Ten-m homolog 3 (Homo sapiens) (UniProt Q9P273)
[22] = molecular target: retinoblastoma binding protein 8 isoform b (Homo sapiens) (UniProt Q99708)
[23] = molecular target: similar to Ig alpha-2 chain C region (Homo sapiens) (UniProt P25787)
[24] = molecular target: similar to KIAA1074 protein (Homo sapiens) (UniProt Q9UPS8)
[25] = molecular target: similar to KIAA2018 protein (Homo sapiens) (UniProt Q68DE3)
[26] = molecular target: T1, similar to Nonhistone chromosomal protein HMG-14 (High-mobility group nucleosome binding domain 1) (Homo sapiens) (UniProt P05114)
T1 sequence (looked up): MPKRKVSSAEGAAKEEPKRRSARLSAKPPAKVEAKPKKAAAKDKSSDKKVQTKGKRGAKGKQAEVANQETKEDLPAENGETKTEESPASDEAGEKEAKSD

[27] = molecular target: similar to zinc finger, CW-type with PWWP domain 1 (Homo sapiens)
[28] = molecular target: stress 70 protein chaperone, microsome-associated, 60 kDa (Homo sapiens) (UniProt P48723)
[29] = molecular target: synovial sarcoma, X breakpoint 2 isoform a (Homo sapiens) (UniProt Q16385)
[30] = molecular target: tripartite motif protein TRIM14 isoform alpha (Homo sapiens) (UniProt Q14142)

Chain of GroEL having Aspartate 490 substituted with Cysteine, biotinylated and conjugated onto NeutrAvidin beads (A1AJ51 whole entry D490C): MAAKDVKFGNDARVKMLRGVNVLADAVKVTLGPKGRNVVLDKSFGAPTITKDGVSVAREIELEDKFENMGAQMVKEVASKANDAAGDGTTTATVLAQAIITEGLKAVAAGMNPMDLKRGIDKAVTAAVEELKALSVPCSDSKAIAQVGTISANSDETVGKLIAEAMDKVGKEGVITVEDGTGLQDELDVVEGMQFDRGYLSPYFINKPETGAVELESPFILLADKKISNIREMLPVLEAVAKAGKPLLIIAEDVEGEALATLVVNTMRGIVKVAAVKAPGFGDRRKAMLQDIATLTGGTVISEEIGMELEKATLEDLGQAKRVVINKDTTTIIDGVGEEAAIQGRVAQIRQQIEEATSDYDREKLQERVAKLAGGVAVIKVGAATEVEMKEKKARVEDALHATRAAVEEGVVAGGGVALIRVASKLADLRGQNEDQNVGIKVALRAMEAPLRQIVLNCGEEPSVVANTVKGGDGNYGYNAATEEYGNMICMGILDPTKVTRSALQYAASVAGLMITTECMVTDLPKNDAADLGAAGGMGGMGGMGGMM
Chain of ATPase, H+ transporting, lysosomal V0 subunit a isoform 2 (Homo sapiens) (Q9Y487 whole entry, canonical isoform): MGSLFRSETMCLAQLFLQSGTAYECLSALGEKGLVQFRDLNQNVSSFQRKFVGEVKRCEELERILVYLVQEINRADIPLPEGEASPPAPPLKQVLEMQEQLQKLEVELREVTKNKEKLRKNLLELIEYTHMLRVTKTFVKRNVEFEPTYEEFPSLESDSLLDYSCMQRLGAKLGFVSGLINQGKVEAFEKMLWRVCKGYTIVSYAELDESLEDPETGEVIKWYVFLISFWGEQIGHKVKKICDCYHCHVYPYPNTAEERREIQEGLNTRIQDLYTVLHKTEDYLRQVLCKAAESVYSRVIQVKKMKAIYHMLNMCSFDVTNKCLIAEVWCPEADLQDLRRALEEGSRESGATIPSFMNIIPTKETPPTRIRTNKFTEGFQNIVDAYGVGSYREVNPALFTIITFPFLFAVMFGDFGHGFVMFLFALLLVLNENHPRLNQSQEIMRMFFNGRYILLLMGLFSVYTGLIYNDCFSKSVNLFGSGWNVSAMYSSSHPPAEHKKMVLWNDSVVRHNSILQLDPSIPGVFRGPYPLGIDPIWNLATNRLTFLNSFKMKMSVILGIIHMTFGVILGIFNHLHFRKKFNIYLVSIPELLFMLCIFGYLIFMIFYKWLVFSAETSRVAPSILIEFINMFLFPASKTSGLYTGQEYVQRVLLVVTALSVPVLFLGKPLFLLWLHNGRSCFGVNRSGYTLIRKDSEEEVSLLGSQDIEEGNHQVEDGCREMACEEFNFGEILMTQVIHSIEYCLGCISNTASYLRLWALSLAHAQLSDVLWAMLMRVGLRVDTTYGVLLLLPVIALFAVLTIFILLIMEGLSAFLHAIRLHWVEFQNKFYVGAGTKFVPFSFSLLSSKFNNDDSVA

Substance: GroEL having Aspartate 490 substituted with Cysteine, biotinylated and conjugated onto NeutrAvidin beads (from UniProt A1AJ51 1-548)
- Spectrum Count [1]: 9 count
- Spectrum Count [2]: 12 count
- Spectrum Count [3]: 13 count
- Spectrum Count [4]: 15 count
- Spectrum Count [5]: 11 count
- Spectrum Count [6]: 9 count
- Spectrum Count [7]: 11 count
- Spectrum Count [8]: 9 count
- Spectrum Count [9]: 13 count
- Spectrum Count [10]: 19 count
- Spectrum Count [11]: 12 count
- Spectrum Count [12]: 11 count
- Spectrum Count [13]: 43 count
- Spectrum Count [14]: 14 count
- Spectrum Count [15]: 14 count
- Spectrum Count [16]: 10 count
- Spectrum Count [17]: 17 count
- Spectrum Count [18]: 10 count
- Spectrum Count [19]: 16 count
- Spectrum Count [20]: 9 count
- Spectrum Count [21]: 14 count
- Spectrum Count [22]: 22 count
- Spectrum Count [23]: 19 count
- Spectrum Count [24]: 28 count
- Spectrum Count [25]: 12 count
- Spectrum Count [26]: 13 count
- Spectrum Count [27]: 16 count
- Spectrum Count [28]: 12 count
- Spectrum Count [29]: 21 count
- Spectrum Count [30]: 21 count
